Source: publication PMC12210189, “Crystal structure of the sucrose phosphorylase from Alteromonas mediterranea shows a loop transition in the active site” (Acta Crystallographica Section F: Structural Biology …, 2025)

Biological target: the molecule itself
Assay: crystal structure; sitting drop, 295 K; protein 6.9 mg/ml in 25 mM HEPES, 50 mM NaCl, 0.5 mM DTT pH 7.0; reservoir 60%(v/v) Tacsimate pH 7.0; apo enzyme; 2.15 Å; two molecules (one dimer) in the asymmetric unit

B1: sucrose phosphorylase from Alteromonas mediterranea (enzyme)
chain: MGSIRNGVQLITYADRLGDGNIESLTNLLDGPLKGLFKGVHILPFYYPYDGEDAGFDPIDHTTVDERLGDWNNIKKLGESVDIMADLIVNHMSGQSEAFTDVLKKGRESEYWPLFLTKEDVFSGNDQAEIDEQIAKVFRPRPTPFFSDYEVGIETDSTETVPFWTTFTSNQIDIDVESELGKEYLSSILQSFTESNVDLIRLDAAGYAIKRAGSNCFMLEETFEFIEALSKRARTMGMQCLVEIHSHYQTQIDIAARCDSVYDFALPPLVLHTLFTKDASALAHWLSISPRNCFTVLDTHDGIGIVDVGASGDKPGLISADAINALVEQIHVNSNGESKKATGAAANNVDLYQVNCTYYDALGKDDFAYLVARAIQFFSPGIPQVYYGGLLAAHNDMELLANTNVGRDINRPYLTTAMVEDAIQKPVVKGLMQLITLRNENKAFGGAFDVTYTDNTLVLSWSNDGDAASLTVDFAAMDATINTVSNGEESTLSIGALLA
notes: sucrose phosphorylase (AmSP-WT), Alteromonas mediterranea, UniProt S5AE64_9ALTE; synthetic gene in pET-28b; also called AmSP; AmSP-WT; source: E. coli BL21(DE3), purified (Ni-NTA IMAC, size-exclusion chromatography)
- stoichiometry N: 2
